This sample holds only a part of the variants without activity.
Columns and labels:
biotinyl-Met-oxazolone = assay: self-aminoacylation, catalytic enhancement (BMO) (fold over background); higher = more active; k-Seq, kA / k0A0; sequences stand for … in GGGAAUGGAUCCACAUCUACGAAUUC…UUCACUGCAGACUUGACGAAGCUG
Procedure, shortened: (§1)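 Working in 50 μL HEPES/NaCl/KCl/MgCl2/CaCl2 buffer with 5% acetonitrile at pH 6.9–7.0, mutagenized RNA pools (0.43 μM; 21-nt variable region) were reacted with 2–1250 μM of each biotinyl-aminoacyl-oxazolone for 90 minutes at room temperature. Streptavidin capture followed, with quantification by triplicate qPCR and Illumina sequencing. Catalytic enhancement is reported as median kA over the uncatalyzed rate, the low-activity peak of a bimodal Gaussian fit to the data.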

biotinyl-Phe-oxazolone = assay: self-aminoacylation, catalytic enhancement (BFO) (fold over background); higher = more active; k-Seq, kA / k0A0; sequences stand for … in GGGAAUGGAUCCACAUCUACGAAUUC…UUCACUGCAGACUUGACGAAGCUG
Procedure, shortened: as §1

biotinyl-Ile-oxazolone = assay: self-aminoacylation, catalytic enhancement (BIO) (fold over background); higher = more active; k-Seq, kA / k0A0; sequences stand for … in GGGAAUGGAUCCACAUCUACGAAUUC…UUCACUGCAGACUUGACGAAGCUG
Procedure, shortened: as §1

biotinyl-Val-oxazolone = assay: self-aminoacylation, catalytic enhancement (BVO) (fold over background); higher = more active; k-Seq, kA / k0A0; sequences stand for … in GGGAAUGGAUCCACAUCUACGAAUUC…UUCACUGCAGACUUGACGAAGCUG
Procedure, shortened: as §1

biotinyl-Leu-oxazolone = assay: self-aminoacylation, catalytic enhancement (BLO) (fold over background); higher = more active; k-Seq, kA / k0A0; sequences stand for … in GGGAAUGGAUCCACAUCUACGAAUUC…UUCACUGCAGACUUGACGAAGCUG
Procedure, shortened: as §1

biotinyl-Trp-oxazolone = assay: self-aminoacylation, catalytic enhancement (BWO) (fold over background); higher = more active; k-Seq, kA / k0A0; sequences stand for … in GGGAAUGGAUCCACAUCUACGAAUUC…UUCACUGCAGACUUGACGAAGCUG
Procedure, shortened: as §1

Sequence | self-aminoacylation (biotinyl-Met-oxazolone) | self-aminoacylation (biotinyl-Phe-oxazolone) | self-aminoacylation (biotinyl-Ile-oxazolone) | self-aminoacylation (biotinyl-Val-oxazolone) | self-aminoacylation (biotinyl-Leu-oxazolone) | self-aminoacylation (biotinyl-Trp-oxazolone)
CCUCACUUCAAGCAAUCGCUC [Fam1B.1 aminoacylation ribozyme variant] | 1.15 | 1.27 | 1.16 | 1.18 | 1.36 | 0.912
CUAAUUCAAACAAUCGGUUUG [Fam1A.1 aminoacylation ribozyme variant] | 0.701 | 3.96 | 0.802 | 0.724 | 0.696 | 2.78
AUUAGCCUGGUCAUCGAAUGA [Fam2.1 aminoacylation ribozyme variant] | 1.43 | 1.23 | 1.36 | 1.39 | 1.48 | 1.27
AUUCGCCUAGGACAUCGGGUG [Fam2.2 aminoacylation ribozyme variant] | 3.03 | 19.1 | 2.29 | 3.02 | 4.25 | 3.67
AUUCACCUAGGUCAGGGGGUG [Fam2.2 aminoacylation ribozyme variant] | 2.67 | 13.9 | 1.78 | 1.8 | 3.4 | 2.55
CUGCUUCAAGCAAUCGGUCUG [Fam1A.1 aminoacylation ribozyme variant] | 2.13 | 132 | 1.29 | 1.49 | 2.96 | 42.8
AUUAGCCUGGUGAUCGAGUGA [Fam2.1 aminoacylation ribozyme variant] | 7.43 | 41.1 | 3.98 | 3.62 | 7.61 | 8.57
AUUCACCUAGGUCAUCGGCUU [Fam2.2 aminoacylation ribozyme variant] | 2.26 | 6.3 | 2.1 | 2.02 | 2.3 | 3.27
UUACAUCAAACAAUCGGUCUG [Fam1A.1 aminoacylation ribozyme variant] | 1.19 | 3.42 | 1.12 | 1.17 | 1.17 | 2.51
AUUACACUGGCCAUCGAGUGA [Fam2.1 aminoacylation ribozyme variant] | 6.45 | 15.9 | 3.13 | 3.07 | 6.8 | 5.64
UUUCACCUAGAUCAUCGGGUG [Fam2.2 aminoacylation ribozyme variant] | 2.58 | 16.5 | 2.35 | 2.58 | 2.82 | 3.04
AGUUACCUAGGUCAUCGGGUG [Fam2.2 aminoacylation ribozyme variant] | 5.38 | 40.1 | 4.59 | 4.62 | 6.47 | 6.91
CCACACUUCAAGCAUUCGUUC [Fam1B.1 aminoacylation ribozyme variant] | 0.685 | 0.811 | 0.852 | 1.02 | 0.653 | 0.688
AUUACCGCGGUCAUCGAGUGA [Fam2.1 aminoacylation ribozyme variant] | 5.86 | 36.1 | 3.36 | 3.11 | 6.47 | 7.16
AUUACUCUGGUUAUCGAGUGA [Fam2.1 aminoacylation ribozyme variant] | 8.17 | 51.3 | 4.17 | 4.2 | 8.76 | 10.5
AUGCACCUGGGUCAUCGGGUG [Fam2.2 aminoacylation ribozyme variant] | 4.33 | 21.2 | 3.37 | 3.8 | 3.18 | 3.63
AAGUUUGCUAAUAGUACCAAG [Fam3.1 aminoacylation ribozyme variant] | 1.22 | 1.41 | 1.14 | 1.15 | 0.791 | 0.838
AUUCACCUACGUCAUCGAGUG [Fam2.2 aminoacylation ribozyme variant] | 4.25 | 12.5 | 2.45 | 2.71 | 4.08 | 3.77
AAGUUUGCUAAUAAUCGCGAG [Fam3.1 aminoacylation ribozyme variant] | 0.863 | 1.24 | 0.983 | 0.808 | 0.744 | 1.47
AUCCACGUAGGUCAUCGGGUG [Fam2.2 aminoacylation ribozyme variant] | 4.61 | 37.4 | 3.4 | 4.96 | 4.88 | 4.86
AUUCACCUAGGUAAUCGGAUG [Fam2.2 aminoacylation ribozyme variant] | 0.585 | 0.527 | 0.61 | 0.524 | 0.546 | 0.594
UUACUUCAAACAAUCGCUCUG [Fam1A.1 aminoacylation ribozyme variant] | 1.07 | 2.29 | 1.21 | 1.12 | 1.16 | 1.51
ACACAUUUCAAGCAAUCGGUC [Fam1B.1 aminoacylation ribozyme variant] | 1.12 | 2.41 | 1.2 | 1.41 | 1.12 | 1.86
AUUCAUCUAGGUCAUCGGGUU [Fam2.2 aminoacylation ribozyme variant] | 2.46 | 3.41 | 2.22 | 2.03 | 2.81 | 2.36
AUUACCCUGGUCAACGAGUGC [Fam2.1 aminoacylation ribozyme variant] | 0.848 | 0.478 | 0.908 | 0.903 | 1.01 | 0.892
CUACUUCACACAAUCGGUCUA [Fam1A.1 aminoacylation ribozyme variant] | 0.626 | 0.822 | 0.72 | 0.834 | 0.802 | 0.777

Sequence | self-aminoacylation (biotinyl-Met-oxazolone) | self-aminoacylation (biotinyl-Phe-oxazolone) | self-aminoacylation (biotinyl-Ile-oxazolone) | self-aminoacylation (biotinyl-Val-oxazolone) | self-aminoacylation (biotinyl-Leu-oxazolone) | self-aminoacylation (biotinyl-Trp-oxazolone)
GCACACCUCAAGCAAUCGGUC [Fam1B.1 aminoacylation ribozyme variant] | 1.3 | 2.09 | 1.4 | 1.73 | 1.23 | 2.46
CCACACUUCAAGCAGACGGUC [Fam1B.1 aminoacylation ribozyme variant] | 0.607 | 0.719 | 0.686 | 0.57 | 0.605 | 0.539
CUACUUCCAACAGUCGGUCUG [Fam1A.1 aminoacylation ribozyme variant] | 1.06 | 0.496 | 0.911 | 0.851 | 0.971 | 0.76
AUUCACCUGGGUCAUCGGGUA [Fam2.2 aminoacylation ribozyme variant] | 18.6 | 47.8 | 8.3 | 10.6 | 22.3 | 14.8
CCACACUUCAAGCAUUCGGCC [Fam1B.1 aminoacylation ribozyme variant] | 1.25 | 0.749 | 1.84 | 1.99 | 1.63 | 1.69
CUGAUUCAAACAAUCGGUCUG [Fam1A.1 aminoacylation ribozyme variant] | 0.923 | 9.61 | 0.947 | 0.828 | 1.14 | 6.12
AGGUUUGCUAAGAGUCGCAAG [Fam3.1 aminoacylation ribozyme variant] | 1.15 | 3.17 | 1.12 | 1.02 | 1.02 | 1.54
AUUACCCUGGUCAUCCAAUGA [Fam2.1 aminoacylation ribozyme variant] | 1.2 | 1.66 | 0.938 | 0.942 | 1.47 | 0.429
CUACUUCGAACAAUCUGUCUG [Fam1A.1 aminoacylation ribozyme variant] | 0.51 | 0.413 | 0.539 | 0.576 | 0.576 | 0.337
CUACUUCAAACCAUCGAUCUG [Fam1A.1 aminoacylation ribozyme variant] | 0.614 | 0.733 | 0.685 | 0.777 | 0.529 | 0.581
CUACCUCAAACAAUCGCUCUG [Fam1A.1 aminoacylation ribozyme variant] | 0.85 | 0.589 | 0.818 | 1.17 | 1.27 | 1.83
CUUCUUCAAACAAUCGGUCUG [Fam1A.1 aminoacylation ribozyme variant] | 0.996 | 35.5 | 0.898 | 0.902 | 1.41 | 17.6
AUUCACCUAGGUAAUCGGCUG [Fam2.2 aminoacylation ribozyme variant] | 1.23 | 0.486 | 0.944 | 1.02 | 1.31 | 1.2
AUUACCCUGGUCAUCGGGUAA [Fam2.1 aminoacylation ribozyme variant] | 35.6 | 208 | 11.4 | 16 | 38.2 | 42.4
AUUCACCCAGGUCAUCGGGUC [Fam2.2 aminoacylation ribozyme variant] | 1.5 | 6.42 | 1.14 | 1.88 | 1.92 | 1.39
AACUUUGCUGAUAGUCGCAAG [Fam3.1 aminoacylation ribozyme variant] | 2.81 | 3.74 | 2.81 | 2.24 | 3.01 | 3.67
AUUCCCCUGGUAAUCGAGUGA [Fam2.1 aminoacylation ribozyme variant] | 6.36 | 37.7 | 3.09 | 3.28 | 5.9 | 7.35
CCACACUCCAAGCAAUCGGAC [Fam1B.1 aminoacylation ribozyme variant] | 0.74 | 0.729 | 1.09 | 0.937 | 1.37 | 0.574
CUAGUUCAAACAAUCGGUCAG [Fam1A.1 aminoacylation ribozyme variant] | 0.731 | 2.03 | 0.714 | 0.753 | 0.692 | 1.2
AUUCAACUCGGUCAUCGGGUG [Fam2.2 aminoacylation ribozyme variant] | 6.48 | 67.4 | 4.15 | 3.84 | 9.77 | 7.4
AUUACCCUGGCCCUCGAGUGA [Fam2.1 aminoacylation ribozyme variant] | 4.04 | 24.1 | 2.5 | 3.42 | 4.5 | 3.6
AUGCACCUAUGUCAUCGGGUG [Fam2.2 aminoacylation ribozyme variant] | 4.11 | 26.4 | 2.81 | 2.48 | 5.19 | 4.24
AAGUUUGCUAGUAGUUGCAAG [Fam3.1 aminoacylation ribozyme variant] | 1.04 | 0.949 | 0.985 | 0.737 | 0.791 | 1.1
AUGUUUGCUAAUUGUCGCAAG [Fam3.1 aminoacylation ribozyme variant] | 1.41 | 1.81 | 1.38 | 1.17 | 1.64 | 2.13
CCACACUUCAAGCAAACGGUG [Fam1B.1 aminoacylation ribozyme variant] | 3.91 | 10.7 | 3.12 | 3.33 | 5.1 | 4.31
